In PMC10765961 (2024):

Legend:
Assay in all cases: microscale thermophoresis
EPHA2ΔC ECD = EPHA2ΔC ECD (Homo sapiens, UniProt P29317)
EPHA2 = EPHA2 (Homo sapiens, UniProt P29317)
[1] = molecular target: T1, EPHA2ΔN intracellular region (Homo sapiens, UniProt P29317)
T1 chain: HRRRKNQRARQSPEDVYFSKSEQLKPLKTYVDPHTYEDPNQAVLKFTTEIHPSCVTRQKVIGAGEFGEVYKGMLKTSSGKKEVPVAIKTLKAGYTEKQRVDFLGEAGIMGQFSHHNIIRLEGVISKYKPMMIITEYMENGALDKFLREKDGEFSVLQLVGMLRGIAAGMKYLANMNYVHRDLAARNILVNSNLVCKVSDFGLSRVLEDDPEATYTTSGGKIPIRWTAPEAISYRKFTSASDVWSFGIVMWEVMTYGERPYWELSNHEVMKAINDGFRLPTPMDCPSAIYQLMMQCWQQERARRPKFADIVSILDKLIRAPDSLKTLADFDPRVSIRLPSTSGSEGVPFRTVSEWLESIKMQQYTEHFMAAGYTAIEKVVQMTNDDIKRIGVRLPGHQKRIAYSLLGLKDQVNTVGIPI

Chain of EPHA2ΔC ECD (P29317 24-537, stated change not applied): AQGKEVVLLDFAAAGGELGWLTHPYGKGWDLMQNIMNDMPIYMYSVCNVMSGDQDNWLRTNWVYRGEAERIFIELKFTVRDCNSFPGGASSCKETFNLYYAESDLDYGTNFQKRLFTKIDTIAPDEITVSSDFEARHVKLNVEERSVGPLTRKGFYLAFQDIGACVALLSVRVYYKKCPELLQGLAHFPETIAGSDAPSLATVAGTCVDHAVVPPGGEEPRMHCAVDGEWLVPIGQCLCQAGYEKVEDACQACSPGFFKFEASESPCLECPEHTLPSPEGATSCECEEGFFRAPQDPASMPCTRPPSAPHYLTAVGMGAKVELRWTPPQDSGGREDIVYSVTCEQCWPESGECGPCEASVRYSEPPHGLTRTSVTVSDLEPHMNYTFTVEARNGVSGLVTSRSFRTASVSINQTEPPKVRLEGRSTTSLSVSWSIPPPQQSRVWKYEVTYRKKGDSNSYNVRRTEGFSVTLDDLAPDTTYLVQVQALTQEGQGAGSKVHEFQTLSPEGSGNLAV

- Kd (EPHA2ΔC ECD): 582 nM
- Kd (EPHA2): 150 nM
- Kd [1]: 125 nM
B1: Claudin-1 (protein)
chain: MANAGLQLLGFILAFLGWIGAIVSTALPQWRIYSYAGDNIVTAQAMYEGLWMSCVSQSTGQIQCKVFDSLLNLSSTLQATRALMVVGILLGVIAIFVATVGMKCMKCLEDDEVQKMRMAVIGGAIFLLAGLAILVATAWYGNRIVQEFYDPMTPVNARYEFGQALFTGWAAASLCLLGGALLCCSCPRKTTSYPTPRPYPKPAPSSGKDYV
modifications: Cy3-labeled CLDN1
